Usually Kd stands for the free concentration of one partner at which half of the binding sites on the other are occupied at equilibrium, for simple one-to-one binding. Higher therefore signals a looser complex.

Settings in all cases: both partners purified
Test [1] deals with T1, hRpn10^305–377 (RAZUL, Rpn10 AZUL-binding domain) (human, UniProt P55036 305-377).
T1 construct: Isotope-labelled (15N, 13C, 2H) in some NMR samples; also called hRpn10 RAZUL; source: E. coli Rosetta 2 (DE3), purified (glutathione sepharose, PreScission cleavage, SEC); not shown: GST, N-terminal, cleaved
T1 sequence (looked up): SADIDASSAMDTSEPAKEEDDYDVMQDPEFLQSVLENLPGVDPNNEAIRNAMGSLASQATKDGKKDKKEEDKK
Briefly: ITC; 25 °C, MicroCal iTC200; E6AP AZUL injected into hRpn10 305-377 (0.0405 mM) or hRpn10 322-366 peptides (0.01 mM) in the cell; 10 mM MOPS pH 6.5, 50 mM NaCl, 5 mM DTT, 10 μM zinc sulfate; one-site fit.

The next test concerns the target T2, GST-hRpn10^305–377 (human, UniProt P55036 305-377).
T2 construct: pGEX-6P-3; a PreScission site lies between GST and hRpn10; source: E. coli Rosetta 2 (DE3), purified (glutathione sepharose, glutathione elution, SEC); not shown: GST, N-terminal, kept
T2 sequence (looked up): T1 sequence (looked up)
Briefly: SPR; Biacore T200; GST-hRpn10 305-377 captured (800 RU) by anti-GST antibody on a CM5 chip, GST on the reference cell; E6AP AZUL 5-250 nM in HBS-P+ with 10 μM zinc sulfate, single cycle kinetics, triplicate. Background: Surface plasmon resonance follows binding to a sensor surface in real time, without labels.

Test [2] concerns the target T3, full-length E6AP (Isoform II) (human, UniProt Q05086 1-875).
T3 construct: E6AP/UBE3A, isoform II, full length; catalytic cysteine C843 in isoform II; also called UBE3A; source: bought: UBPBio K1411
Nature of the test: pull-down; 2 nmol His-tagged hRpn10 construct on Ni-NTA agarose, 200 pmol E6AP for 1 h; 10 mM MOPS pH 6.5, 50 mM NaCl, 5 mM 2-mercaptoethanol, 10 μM zinc sulfate; Coomassie staining.

The next test addresses ubiquitin (UniProt P0CG48 1-76). Briefly: NMR titration; 2D NMR on 15N-hRpn10 196-377, ubiquitin added; 25 °C, 10 mM MOPS pH 6.5, 50 mM NaCl, 5 mM DTT, 10 μM zinc sulfate.

T3 sequence (Q05086 whole entry, canonical isoform): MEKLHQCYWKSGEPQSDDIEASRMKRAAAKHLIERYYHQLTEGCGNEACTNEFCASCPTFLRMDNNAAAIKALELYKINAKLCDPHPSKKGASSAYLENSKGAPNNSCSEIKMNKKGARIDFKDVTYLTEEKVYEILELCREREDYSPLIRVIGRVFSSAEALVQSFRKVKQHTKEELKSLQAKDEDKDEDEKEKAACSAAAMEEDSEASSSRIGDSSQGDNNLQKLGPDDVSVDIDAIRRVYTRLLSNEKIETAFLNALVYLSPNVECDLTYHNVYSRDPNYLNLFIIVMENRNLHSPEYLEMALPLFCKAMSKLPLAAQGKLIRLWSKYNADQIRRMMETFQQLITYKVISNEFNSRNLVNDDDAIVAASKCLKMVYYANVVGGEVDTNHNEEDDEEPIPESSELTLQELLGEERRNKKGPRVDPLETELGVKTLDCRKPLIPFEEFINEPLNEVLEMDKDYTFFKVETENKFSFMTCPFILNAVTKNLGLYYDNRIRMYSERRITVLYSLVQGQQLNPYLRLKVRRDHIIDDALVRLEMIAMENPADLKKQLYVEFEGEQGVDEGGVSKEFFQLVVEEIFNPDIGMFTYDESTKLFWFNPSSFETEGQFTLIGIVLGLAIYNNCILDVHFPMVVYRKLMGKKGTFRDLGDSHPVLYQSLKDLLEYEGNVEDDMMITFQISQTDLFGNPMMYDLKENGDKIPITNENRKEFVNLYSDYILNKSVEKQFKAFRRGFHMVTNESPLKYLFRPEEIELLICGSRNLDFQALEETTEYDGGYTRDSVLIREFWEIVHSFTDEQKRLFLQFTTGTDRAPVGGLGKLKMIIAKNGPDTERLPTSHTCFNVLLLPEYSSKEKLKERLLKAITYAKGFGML

B1: E6AP AZUL (amino-terminal zinc-binding domain of ubiquitin E3a ligase), amino acids 24 to 87 (domain or fragment, human, UniProt Q05086 24-87, looked up)
chain: MKRAAAKHLIERYYHQLTEGCGNEACTNEFCASCPTFLRMDNNAAAIKALELYKINAKLCDPHP
notes: E6AP/UBE3A AZUL domain, human, amino acids 24 to 87, subcloned from HA-E6AP isoform II; zinc sulfate in the buffers; Isotope-labelled (15N, 13C) in some NMR samples; also called AZUL domain; source: E. coli BL21 (DE3), purified (Ni-NTA, thrombin cleavage, SEC); not shown: polyhistidine tag, N-terminal, cleaved
In the case of B1, the dissociation constant (Kd) is 11.6 nM in test [1] and 8.1 nM with GST-hRpn10^305–377.

B2: His-hRpn10^full-length (natural protein, human, UniProt P55036 1-377, looked up)
chain: MVLESTMVCVDNSEYMRNGDFLPTRLQAQQDAVNIVCHSKTRSNPENNVGLITLANDCEVLTTLTPDTGRILSKLHTVQPKGKITFCTGIRVAHLALKHRQGKNHKMRIIAFVGSPVEDNEKDLVKLAKRLKKEKVNVDIINFGEEEVNTEKLTAFVNTLNGKDGTGSHLVTVPPGPSLADALISSPILAGEGGAMLGLGASDFEFGVDPSADPELALALRVSMEEQRQRQEEEARRAAAASAAEAGIATTGTEDSDDALLKMTISQQEFGRTGLPDLSSMTEEEQIAYAMQMSLQGAEFGQAESADIDASSAMDTSEPAKEEDDYDVMQDPEFLQSVLENLPGVDPNNEAIRNAMGSLASQATKDGKKDKKEEDKK
notes: human Rpn10 (hRpn10/PSMD4/S5a), full length; pET11d plasmid, a gift from Dr Fumio Hanaoka; also called His6-hRpn10^full-length; source: E. coli BL21 (DE3), purified (Ni-NTA, imidazole elution, SEC); not shown: His6, N-terminal, kept
With B2, in test [2], the binding result was “binds”.

B3: His-hRpn10^196–377 (domain or fragment, human, UniProt P55036 196-377, looked up)
chain: MLGLGASDFEFGVDPSADPELALALRVSMEEQRQRQEEEARRAAAASAAEAGIATTGTEDSDDALLKMTISQQEFGRTGLPDLSSMTEEEQIAYAMQMSLQGAEFGQAESADIDASSAMDTSEPAKEEDDYDVMQDPEFLQSVLENLPGVDPNNEAIRNAMGSLASQATKDGKKDKKEEDKK
notes: pET14b with a thrombin site; the methods say that it was eluted with the His-tag intact; 15N-labelled for the NMR experiment with ubiquitin; source: E. coli BL21 (DE3), purified (Ni-NTA, imidazole elution, SEC); not shown: polyhistidine tag, N-terminal, kept
With B3, the binding result (in test [2]; with ubiquitin) was “binds” in each case.

The record behind these values is publication PMC7064531, “Structure of E3 ligase E6AP with a proteasome-binding site provided by substrate receptor hRpn10” (Nature Communications, 2020).
